B1: His6–Sec4p (natural protein)
chain: MSGLRTVSASSGNGKSYDSIMKILLIGDSGVGKSCLLVRFVEDKFNPSFITTIGIDFKIKTVDINGKKVKLQLWDTAGQERFRTITTAYYRGAMGIILVYDVTDERTFTNIKQWFKTVNEHANDEAQLLLVGNKSDMETRVVTADQGEALAKELGIPFIESSAKNDDNVNEIFFTLAKLIQEKIDSNKLVGVGNGKEGNISINSGSGNSSKSNCC

Key:
Ypt32p = target: T1, Ypt32p (Saccharomyces cerevisiae, UniProt P51996); assay: GTP hydrolysis; type: biochemical; conditions: with stoichiometric Sec2p (GAP activity)
T1 sequence (P51996 2-222): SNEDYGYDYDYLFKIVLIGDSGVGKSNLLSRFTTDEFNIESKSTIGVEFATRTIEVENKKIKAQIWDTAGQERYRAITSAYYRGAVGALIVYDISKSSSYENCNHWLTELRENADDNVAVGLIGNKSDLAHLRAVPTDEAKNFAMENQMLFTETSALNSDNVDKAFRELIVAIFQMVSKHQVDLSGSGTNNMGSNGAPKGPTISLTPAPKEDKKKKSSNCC

GST–Sec2p (full-length) = target: T2, GST–Sec2p (full-length) (S. cerevisiae, UniProt P17065 1-759); assay: pull-down
T2 sequence: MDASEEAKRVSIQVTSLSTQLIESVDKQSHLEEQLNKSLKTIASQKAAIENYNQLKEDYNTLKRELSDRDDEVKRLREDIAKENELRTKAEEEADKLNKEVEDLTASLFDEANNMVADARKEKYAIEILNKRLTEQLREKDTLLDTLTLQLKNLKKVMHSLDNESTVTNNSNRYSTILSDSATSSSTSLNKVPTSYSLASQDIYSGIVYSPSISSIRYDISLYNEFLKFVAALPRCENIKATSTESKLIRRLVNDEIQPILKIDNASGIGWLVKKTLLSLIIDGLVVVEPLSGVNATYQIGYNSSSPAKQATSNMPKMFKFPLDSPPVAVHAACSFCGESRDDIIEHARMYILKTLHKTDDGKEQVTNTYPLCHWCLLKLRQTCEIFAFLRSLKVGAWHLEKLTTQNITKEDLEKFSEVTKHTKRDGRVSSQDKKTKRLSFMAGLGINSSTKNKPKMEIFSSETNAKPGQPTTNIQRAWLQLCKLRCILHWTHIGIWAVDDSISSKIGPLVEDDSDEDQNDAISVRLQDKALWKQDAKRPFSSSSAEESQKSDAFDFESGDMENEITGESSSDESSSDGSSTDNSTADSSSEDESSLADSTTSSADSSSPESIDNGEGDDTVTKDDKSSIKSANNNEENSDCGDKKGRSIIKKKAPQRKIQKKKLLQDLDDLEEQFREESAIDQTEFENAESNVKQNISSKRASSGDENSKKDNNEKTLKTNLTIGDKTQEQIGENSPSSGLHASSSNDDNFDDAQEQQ

GST–Sec2-70 (aa 1–508) = target: T3, GST–Sec2-70 (aa 1–508) (S. cerevisiae, UniProt P17065 1-508); assay: pull-down
T3 sequence: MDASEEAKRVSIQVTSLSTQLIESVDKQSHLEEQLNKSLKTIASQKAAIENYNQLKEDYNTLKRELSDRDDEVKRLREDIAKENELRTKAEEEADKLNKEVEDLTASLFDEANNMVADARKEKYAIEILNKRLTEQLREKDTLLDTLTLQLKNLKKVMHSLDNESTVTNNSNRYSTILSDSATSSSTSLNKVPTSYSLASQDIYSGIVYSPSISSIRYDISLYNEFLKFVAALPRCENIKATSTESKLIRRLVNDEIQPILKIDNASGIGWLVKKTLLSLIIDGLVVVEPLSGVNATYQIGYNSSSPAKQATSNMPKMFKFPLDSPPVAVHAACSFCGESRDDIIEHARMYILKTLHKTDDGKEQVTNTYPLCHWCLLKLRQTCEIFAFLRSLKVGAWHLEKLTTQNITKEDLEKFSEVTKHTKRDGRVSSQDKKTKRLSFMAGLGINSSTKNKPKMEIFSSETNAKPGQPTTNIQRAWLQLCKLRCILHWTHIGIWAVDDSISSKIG

GST–Sec2(aa 161–759) = target: T4, GST–Sec2(aa 161–759) (S. cerevisiae, UniProt P17065 161-759); assay: pull-down
T4 sequence: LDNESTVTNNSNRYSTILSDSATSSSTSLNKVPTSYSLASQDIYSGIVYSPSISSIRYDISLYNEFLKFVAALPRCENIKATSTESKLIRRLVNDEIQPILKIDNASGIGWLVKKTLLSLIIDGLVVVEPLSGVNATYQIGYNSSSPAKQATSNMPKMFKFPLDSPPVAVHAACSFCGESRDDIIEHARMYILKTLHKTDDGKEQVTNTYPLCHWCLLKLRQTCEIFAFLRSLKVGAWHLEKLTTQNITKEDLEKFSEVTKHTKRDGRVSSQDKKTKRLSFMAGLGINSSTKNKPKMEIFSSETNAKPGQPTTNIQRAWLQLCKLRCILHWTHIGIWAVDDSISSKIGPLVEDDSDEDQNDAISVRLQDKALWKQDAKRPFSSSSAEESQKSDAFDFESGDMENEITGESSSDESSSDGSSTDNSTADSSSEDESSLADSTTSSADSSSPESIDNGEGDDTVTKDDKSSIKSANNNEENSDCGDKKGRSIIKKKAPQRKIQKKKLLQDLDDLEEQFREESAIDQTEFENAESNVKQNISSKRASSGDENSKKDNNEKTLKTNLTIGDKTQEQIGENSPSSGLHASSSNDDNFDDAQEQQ

GST–Sec2-59(aa 1–374)p = target: T5, GST–Sec2-59(aa 1–374)p (S. cerevisiae, UniProt P17065 1-374); assay: pull-down
T5 sequence: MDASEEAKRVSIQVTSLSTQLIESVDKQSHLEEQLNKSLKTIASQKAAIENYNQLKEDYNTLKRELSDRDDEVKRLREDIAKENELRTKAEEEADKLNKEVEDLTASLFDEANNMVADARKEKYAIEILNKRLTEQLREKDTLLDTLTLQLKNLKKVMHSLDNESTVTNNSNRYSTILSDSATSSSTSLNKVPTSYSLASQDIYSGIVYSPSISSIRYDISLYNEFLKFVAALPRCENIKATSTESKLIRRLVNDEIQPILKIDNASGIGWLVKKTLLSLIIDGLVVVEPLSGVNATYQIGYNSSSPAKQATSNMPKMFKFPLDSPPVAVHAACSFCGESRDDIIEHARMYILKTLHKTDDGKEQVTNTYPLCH

His6–Sec4p = target: B1; assay: pull-down

Nc1nc2c(ncn2[C@@H]2O[C@H](COP(=O)(O)OP(=O)(O)OP(=O)(O)O)[C@@H](O)[C@H]2O)c(=O)[nH]1 [GTP]
GTP hydrolysis (Ypt32p): we observed a fivefold increase in GTP hydrolysis by Ypt32p (unpublished data)

B1
amount bound relative to Ypt32p (fold) (GST–Sec2p (full-length)): 4 fold

B2: His6–Ypt32p (natural protein)
chain: MSNEDYGYDYDYLFKIVLIGDSGVGKSNLLSRFTTDEFNIESKSTIGVEFATRTIEVENKKIKAQIWDTAGQERYRAITSAYYRGAVGALIVYDISKSSSYENCNHWLTELRENADDNVAVGLIGNKSDLAHLRAVPTDEAKNFAMENQMLFTETSALNSDNVDKAFRELIVAIFQMVSKHQVDLSGSGTNNMGSNGAPKGPTISLTPAPKEDKKKKSSNCC
binding result (GST–Sec2p (full-length)): binds
binding result (GST–Sec2-70 (aa 1–508)): binds
binding result (GST–Sec2(aa 161–759)): binds
binding result (GST–Sec2-59(aa 1–374)p): binds

B3: GST–Sec2(aa 1–160)p (domain or fragment)
chain: MDASEEAKRVSIQVTSLSTQLIESVDKQSHLEEQLNKSLKTIASQKAAIENYNQLKEDYNTLKRELSDRDDEVKRLREDIAKENELRTKAEEEADKLNKEVEDLTASLFDEANNMVADARKEKYAIEILNKRLTEQLREKDTLLDTLTLQLKNLKKVMHS
binding result (His6–Sec4p): binds
